In series [1] the target is T1, ARR10 (UniProt O49397 1-552).
T1 sequence: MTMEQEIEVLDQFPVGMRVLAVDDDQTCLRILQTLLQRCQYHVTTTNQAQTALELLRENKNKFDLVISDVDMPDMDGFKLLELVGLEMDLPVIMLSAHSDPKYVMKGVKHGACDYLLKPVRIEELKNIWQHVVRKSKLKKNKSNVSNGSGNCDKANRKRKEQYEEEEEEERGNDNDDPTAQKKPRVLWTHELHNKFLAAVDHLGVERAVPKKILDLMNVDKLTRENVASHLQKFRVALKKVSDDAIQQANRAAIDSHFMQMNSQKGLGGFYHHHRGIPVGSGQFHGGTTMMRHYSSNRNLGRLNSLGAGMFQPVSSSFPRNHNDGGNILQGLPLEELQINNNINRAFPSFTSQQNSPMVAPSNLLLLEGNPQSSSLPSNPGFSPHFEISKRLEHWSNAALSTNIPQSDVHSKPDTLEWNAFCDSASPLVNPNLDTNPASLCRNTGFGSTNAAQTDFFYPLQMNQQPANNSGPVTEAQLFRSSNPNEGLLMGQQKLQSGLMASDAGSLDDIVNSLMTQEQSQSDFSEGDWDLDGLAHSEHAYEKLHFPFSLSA
Put plainly: competition.

Series [2] concerns the target T2, ARR1 (UniProt Q940D0 1-690).
T2 sequence: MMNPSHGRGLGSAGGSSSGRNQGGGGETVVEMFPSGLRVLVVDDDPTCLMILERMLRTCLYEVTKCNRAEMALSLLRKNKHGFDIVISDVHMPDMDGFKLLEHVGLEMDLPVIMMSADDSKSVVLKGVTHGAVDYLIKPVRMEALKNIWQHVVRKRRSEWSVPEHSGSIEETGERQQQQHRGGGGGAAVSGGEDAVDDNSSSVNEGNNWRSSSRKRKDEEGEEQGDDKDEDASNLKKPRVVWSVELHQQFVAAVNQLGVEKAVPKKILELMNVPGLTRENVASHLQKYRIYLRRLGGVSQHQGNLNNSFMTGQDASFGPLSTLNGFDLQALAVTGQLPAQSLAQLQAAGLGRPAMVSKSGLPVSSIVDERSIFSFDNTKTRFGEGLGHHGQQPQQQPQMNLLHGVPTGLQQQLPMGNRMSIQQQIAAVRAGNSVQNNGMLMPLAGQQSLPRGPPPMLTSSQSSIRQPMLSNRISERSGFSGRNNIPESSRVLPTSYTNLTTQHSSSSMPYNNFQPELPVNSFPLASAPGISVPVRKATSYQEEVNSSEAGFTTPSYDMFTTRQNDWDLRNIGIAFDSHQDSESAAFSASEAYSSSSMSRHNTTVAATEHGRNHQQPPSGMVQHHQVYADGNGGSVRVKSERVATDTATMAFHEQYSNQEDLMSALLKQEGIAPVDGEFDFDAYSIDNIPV
Put plainly: competition.

B1: AG mutated competitor (dsDNA)
DNA 1: TTTAAAGCAATGGTTACAATTTTAATACTATCAAATGTCTATTGCTTTTA
DNA 2: TAAAAGCAATAGACATTTGATAGTATTAAAATTGTAACCATTGCTTTAAA
For the molecule B1, the binding result in series [1] and in series [2] was “no binding” each time.
